Reference: paper PMC11903955

Target: T1, CDK8 (Arabidopsis thaliana, UniProt Q84TI6 1-470)
T1 sequence: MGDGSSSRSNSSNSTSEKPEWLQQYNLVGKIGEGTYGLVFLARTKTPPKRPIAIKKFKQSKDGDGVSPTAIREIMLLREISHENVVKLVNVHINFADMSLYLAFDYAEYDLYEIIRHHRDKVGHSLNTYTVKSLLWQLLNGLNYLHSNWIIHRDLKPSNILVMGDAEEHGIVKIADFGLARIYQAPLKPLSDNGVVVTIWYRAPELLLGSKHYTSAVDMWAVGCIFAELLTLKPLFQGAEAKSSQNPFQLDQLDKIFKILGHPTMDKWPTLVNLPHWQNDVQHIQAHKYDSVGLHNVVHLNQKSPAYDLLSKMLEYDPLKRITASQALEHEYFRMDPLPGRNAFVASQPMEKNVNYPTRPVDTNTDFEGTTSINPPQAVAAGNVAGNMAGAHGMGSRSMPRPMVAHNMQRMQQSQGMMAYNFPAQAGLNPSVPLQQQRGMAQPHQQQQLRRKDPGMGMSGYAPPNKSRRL
Experiment: EMSA

B1: AT-rich probe (dsDNA)
DNA 1: TAACACATATTTTGATAAATTTATTACTAAAACTATTTT
DNA 2: AAAATAGTTTTAGTAATAAATTTATCAAAATATGTGTTA
- binding result: no binding
